Results from patent US20260242735A1.

Key:
Test in all cases: flow cytometry on transfected cells, IgG
human CD33 F43L (human) = human CD33 F43L (human) (UniProt P20138)
human CD33 F44D (human) = human CD33 F44D (human) (UniProt P20138)
human CD33 F44E (human) = human CD33 F44E (human) (UniProt P20138)
human CD33 F44H (human) = human CD33 F44H (human) (UniProt P20138)
human CD33 F44P (human) = human CD33 F44P (human) (UniProt P20138)
human CD33 F44S (human) = human CD33 F44S (human) (UniProt P20138)
human CD33 F44T (human) = human CD33 F44T (human) (UniProt P20138)
human CD33 H45Y (human) = human CD33 H45Y (human) (UniProt P20138)
human CD33 I47E (human) = human CD33 I47E (human) (UniProt P20138)
human CD33 I47L (human) = human CD33 I47L (human) (UniProt P20138)
human CD33 I47N (human) = human CD33 I47N (human) (UniProt P20138)
human CD33 I47P (human) = human CD33 I47P (human) (UniProt P20138)
human CD33 I47Q (human) = human CD33 I47Q (human) (UniProt P20138)
human CD33 I47R (human) = human CD33 I47R (human) (UniProt P20138)
human CD33 I47T (human) = human CD33 I47T (human) (UniProt P20138)
human CD33 P46D (human) = human CD33 P46D (human) (UniProt P20138)
human CD33 P46I (human) = human CD33 P46I (human) (UniProt P20138)
human CD33 P46L (human) = human CD33 P46L (human) (UniProt P20138)
human CD33 P48H (human) = human CD33 P48H (human) (UniProt P20138)
human CD33 P48K (human) = human CD33 P48K (human) (UniProt P20138)
human CD33 P48L (human) = human CD33 P48L (human) (UniProt P20138)
human CD33 P48M (human) = human CD33 P48M (human) (UniProt P20138)
human CD33 P48Q (human) = human CD33 P48Q (human) (UniProt P20138)
human CD33 P48S (human) = human CD33 P48S (human) (UniProt P20138)
human CD33 P48T (human) = human CD33 P48T (human) (UniProt P20138)
human CD33 P48V (human) = human CD33 P48V (human) (UniProt P20138)
human CD33 P48W (human) = human CD33 P48W (human) (UniProt P20138)
human CD33 P48Y (human) = human CD33 P48Y (human) (UniProt P20138)
human CD33 T42K (human) = human CD33 T42K (human) (UniProt P20138)
human CD33 T42N (human) = human CD33 T42N (human) (UniProt P20138)
human CD33 T42P (human) = human CD33 T42P (human) (UniProt P20138)
human CD33 Y49C (human) = human CD33 Y49C (human) (UniProt P20138)
human CD33 Y49G (human) = human CD33 Y49G (human) (UniProt P20138)
human CD33 Y49H (human) = human CD33 Y49H (human) (UniProt P20138)
human CD33 Y49I (human) = human CD33 Y49I (human) (UniProt P20138)
human CD33 Y49P (human) = human CD33 Y49P (human) (UniProt P20138)
human CD33 Y49R (human) = human CD33 Y49R (human) (UniProt P20138)
human CD33 Y49S (human) = human CD33 Y49S (human) (UniProt P20138)
human CD33 Y49V (human) = human CD33 Y49V (human) (UniProt P20138)
human CD33 Y50D (human) = human CD33 Y50D (human) (UniProt P20138)
human CD33 Y50H (human) = human CD33 Y50H (human) (UniProt P20138)
human CD33 Y50I (human) = human CD33 Y50I (human) (UniProt P20138)
human CD33 Y50L (human) = human CD33 Y50L (human) (UniProt P20138)
human CD33 Y50N (human) = human CD33 Y50N (human) (UniProt P20138)
human CD33 Y50P (human) = human CD33 Y50P (human) (UniProt P20138)
human CD33 Y50Q (human) = human CD33 Y50Q (human) (UniProt P20138)
human CD33 Y50R (human) = human CD33 Y50R (human) (UniProt P20138)

human CD33 F44S (human), sequence (P20138 18-364 F44S limits assumed): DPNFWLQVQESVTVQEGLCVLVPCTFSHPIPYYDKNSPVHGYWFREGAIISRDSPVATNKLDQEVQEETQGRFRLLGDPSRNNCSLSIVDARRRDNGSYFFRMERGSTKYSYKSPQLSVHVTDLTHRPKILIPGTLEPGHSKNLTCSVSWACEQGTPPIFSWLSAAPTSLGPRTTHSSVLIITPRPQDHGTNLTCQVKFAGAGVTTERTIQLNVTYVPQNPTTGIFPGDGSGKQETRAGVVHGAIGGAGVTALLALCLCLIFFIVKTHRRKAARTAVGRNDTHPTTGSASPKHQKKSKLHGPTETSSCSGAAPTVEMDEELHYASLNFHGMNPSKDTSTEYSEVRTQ
human CD33 Y50P (human), sequence (P20138 18-364 Y50P limits assumed): as the sequence (P20138 18-364 F44S limits assumed) above, with S27F, Y33P counted along it
human CD33 Y49C (human), sequence (P20138 18-364 Y49C limits assumed): as the sequence (P20138 18-364 F44S limits assumed) above, with S27F, Y32C counted along it
human CD33 P48T (human), sequence (P20138 18-364 P48T limits assumed): as the sequence (P20138 18-364 F44S limits assumed) above, with S27F, P31T counted along it
human CD33 Y50L (human), sequence (P20138 18-364 Y50L limits assumed): as the sequence (P20138 18-364 F44S limits assumed) above, with S27F, Y33L counted along it
human CD33 F44H (human), sequence (P20138 18-364 F44H limits assumed): as the sequence (P20138 18-364 F44S limits assumed) above, with S27H counted along it
human CD33 I47E (human), sequence (P20138 18-364 I47E limits assumed): as the sequence (P20138 18-364 F44S limits assumed) above, with S27F, I30E counted along it
human CD33 Y50D (human), sequence (P20138 18-364 Y50D limits assumed): as the sequence (P20138 18-364 F44S limits assumed) above, with S27F, Y33D counted along it
human CD33 Y50Q (human), sequence (P20138 18-364 Y50Q limits assumed): as the sequence (P20138 18-364 F44S limits assumed) above, with S27F, Y33Q counted along it
human CD33 P48W (human), sequence (P20138 18-364 P48W limits assumed): as the sequence (P20138 18-364 F44S limits assumed) above, with S27F, P31W counted along it
human CD33 P48Q (human), sequence (P20138 18-364 P48Q limits assumed): as the sequence (P20138 18-364 F44S limits assumed) above, with S27F, P31Q counted along it
human CD33 Y49V (human), sequence (P20138 18-364 Y49V limits assumed): as the sequence (P20138 18-364 F44S limits assumed) above, with S27F, Y32V counted along it
human CD33 Y49I (human), sequence (P20138 18-364 Y49I limits assumed): as the sequence (P20138 18-364 F44S limits assumed) above, with S27F, Y32I counted along it
human CD33 I47R (human), sequence (P20138 18-364 I47R limits assumed): as the sequence (P20138 18-364 F44S limits assumed) above, with S27F, I30R counted along it

Substance: Refmab #7 (WM53) (antibody)
- Mean % WT Binding (human CD33 F43L (human)): 94 % WT binding
- Mean % WT Binding (human CD33 F44D (human)): 9.5 % WT binding
- Mean % WT Binding (human CD33 F44E (human)): 18.3 % WT binding
- Mean % WT Binding (human CD33 F44H (human)): 82.4 % WT binding
- Mean % WT Binding (human CD33 F44P (human)): 21.8 % WT binding
- Mean % WT Binding (human CD33 F44S (human)): 31.8 % WT binding
- Mean % WT Binding (human CD33 F44T (human)): 31.7 % WT binding
- Mean % WT Binding (human CD33 H45Y (human)): 75.7 % WT binding
- Mean % WT Binding (human CD33 I47E (human)): 3.9 % WT binding
- Mean % WT Binding (human CD33 I47L (human)): 37.4 % WT binding
- Mean % WT Binding (human CD33 I47N (human)): 4.7 % WT binding
- Mean % WT Binding (human CD33 I47P (human)): 1.2 % WT binding
- Mean % WT Binding (human CD33 I47Q (human)): 8.2 % WT binding
- Mean % WT Binding (human CD33 I47R (human)): 2 % WT binding
- Mean % WT Binding (human CD33 I47T (human)): 32.7 % WT binding
- Mean % WT Binding (human CD33 P46D (human)): 15.9 % WT binding
- Mean % WT Binding (human CD33 P46I (human)): 107 % WT binding
- Mean % WT Binding (human CD33 P46L (human)): 66.8 % WT binding
- Mean % WT Binding (human CD33 P48H (human)): 1.6 % WT binding
- Mean % WT Binding (human CD33 P48K (human)): 1.6 % WT binding
- Mean % WT Binding (human CD33 P48L (human)): 0.3 % WT binding
- Mean % WT Binding (human CD33 P48M (human)): 3.2 % WT binding
- Mean % WT Binding (human CD33 P48Q (human)): 1.3 % WT binding
- Mean % WT Binding (human CD33 P48S (human)): 2.6 % WT binding
- Mean % WT Binding (human CD33 P48T (human)): 1.6 % WT binding
- Mean % WT Binding (human CD33 P48V (human)): 0.9 % WT binding
- Mean % WT Binding (human CD33 P48W (human)): 0.7 % WT binding
- Mean % WT Binding (human CD33 P48Y (human)): 0.5 % WT binding
- Mean % WT Binding (human CD33 T42K (human)): 77 % WT binding
- Mean % WT Binding (human CD33 T42N (human)): 95.4 % WT binding
- Mean % WT Binding (human CD33 T42P (human)): 15.9 % WT binding
- Mean % WT Binding (human CD33 Y49C (human)): 0.6 % WT binding
- Mean % WT Binding (human CD33 Y49G (human)): 20.5 % WT binding
- Mean % WT Binding (human CD33 Y49H (human)): 27.8 % WT binding
- Mean % WT Binding (human CD33 Y49I (human)): 0.2 % WT binding
- Mean % WT Binding (human CD33 Y49P (human)): 11.7 % WT binding
- Mean % WT Binding (human CD33 Y49R (human)): 1.6 % WT binding
- Mean % WT Binding (human CD33 Y49S (human)): 3.6 % WT binding
- Mean % WT Binding (human CD33 Y49V (human)): 0.9 % WT binding
- Mean % WT Binding (human CD33 Y50D (human)): 1.2 % WT binding
- Mean % WT Binding (human CD33 Y50H (human)): 18 % WT binding
- Mean % WT Binding (human CD33 Y50I (human)): 5.1 % WT binding
- Mean % WT Binding (human CD33 Y50L (human)): 4.7 % WT binding
- Mean % WT Binding (human CD33 Y50N (human)): 4.7 % WT binding
- Mean % WT Binding (human CD33 Y50P (human)): 0.4 % WT binding
- Mean % WT Binding (human CD33 Y50Q (human)): 7.2 % WT binding
- Mean % WT Binding (human CD33 Y50R (human)): 1.7 % WT binding
